Results as given in patent US20120045438A1 (Janssen / Centocor, published 2012).
Changes are numbered by the printed parent chain.

B1: Lc4Hc2 (antibody, V domains shown)
VH: QVTLKESGPVLVKPTETLTLTCTVSGFSLSTYGMGVGWIRQPPGKALEWLAHIWWDDVKRYNPALKSRLTISKDTSKSQVVLTMTNMDPVDTATYYCARMGSDYDVWFDYWGQGTLVTVSS
VL: DIQMTQSPSSLSASVGDRVTITCRASKSISKYLAWYQQKPGKAPKRLIYSGSTLQSGVPSRFSGSGSGTEFTLTISSLQPEDFATYYCQQHNEYPYTFGGGTKVEIK
B2: Lc15Hc2 (antibody, V domains shown)
VH: B1 VH
VL: B1 VL with D1V, Q3W, S10L, V15T, T22S, K45E, R46L, E70D, S77C, P80S
B3: Lc15Hc1 (antibody, V domains shown)
VH: B1 VH with V10A, E16Q, V24F, S78N
VL: B1 VL with D1V, Q3W, S10L, V15T, T22S, K45E, R46L, E70D, S77C, P80S
B4: Lc11Hc2 (antibody, V domains shown)
VH: B1 VH
VL: B1 VL with D1A, Q3R, L11F, V15T, R46L, E70D, S77C, P80S
B5: Lc12Hc1 (antibody, V domains shown)
VH: B1 VH with V10A, E16Q, V24F, S78N
VL: B1 VL with G41E, R46S, E70D
B6: Lc5Hc2 (antibody, V domains shown)
VH: B1 VH
VL: B1 VL with M4L, S10F, R46L, G100Q
B7: Lc10Hc2 (antibody, V domains shown)
VH: B1 VH
VL: B1 VL with M4L, S10F, R46L
B8: Fab clone 2E07 (IL-13-62 library) (Fab, V domains shown)
VH: B1 VH
VL: EIVLTQSPATLSLSPGERATLSCRASKSISKYLAWYQQKPGQAPRLLIYSGSTLQSGIPARFSGSGSGTDFTLTISSLEPEDFAVYYCQQPLEAPYTFGQGTKLEIK
notes: Fab on phage pIX
B9: Fab clone 3G05 (IL-13-62 library) (Fab, V domains shown)
VH: B1 VH
VL: B8 VL with E93D, A94S
notes: Fab on phage pIX
B10: Fab clone 2A07 (IL-13-62 library) (Fab, V domains shown)
VH: B1 VH
VL: B8 VL with P91H, L92D, E93P, A94G
notes: Fab on phage pIX
B11: Fab clone 1C06 (IL-13-62 library) (Fab, V domains shown)
VH: B1 VH
VL: B8 VL with P91H, L92S, E93W, A94G
notes: Fab on phage pIX
B12: Fab clone 3C01 (IL-13-62 library) (Fab, V domains shown)
VH: B1 VH
VL: B8 VL with P91H, L92N, E93F, A94G
notes: Fab on phage pIX
B13: Fab clone 1C09 (IL-13-62 library) (Fab, V domains shown)
VH: B1 VH
VL: B8 VL with Q38R, P91H, L92N
notes: Fab on phage pIX
B14: Fab clone 1F12 (IL-13-62 library) (Fab, V domains shown)
VH: B1 VH
VL: B8 VL with P91H, L92N, E93H, A94G
notes: Fab on phage pIX
B15: Fab clone 1A07 (IL-13-62 library) (Fab, V domains shown)
VH: B1 VH
VL: B8 VL with P91H, L92D, E93N, A94S
notes: Fab on phage pIX
B16: Fab clone 4D01 (IL-13-62 library) (Fab, V domains shown)
VH: B1 VH
VL: B8 VL with E93D, A94V
notes: Fab on phage pIX
B17: Fab clone 4B10 (IL-13-62 library) (Fab, V domains shown)
VH: B1 VH
VL: B8 VL with P91H, L92F, E93W, A94G
notes: Fab on phage pIX
B18: Fab clone 2G06 (IL-13-62 library) (Fab, V domains shown)
VH: B1 VH
VL: B8 VL with S56G, P91H, E93D, A94S
notes: Fab on phage pIX
B19: Fab clone 1C07 (IL-13-62 library) (Fab, V domains shown)
VH: B1 VH
VL: B8 VL with P91H, L92E, E93S, A94G
notes: Fab on phage pIX
B20: Fab clone 1G05 (IL-13-62 library) (Fab, V domains shown)
VH: B1 VH
VL: B8 VL with P91Q, L92D, E93I, A94G
notes: Fab on phage pIX
B21: Fab clone 1B05 (IL-13-62 library) (Fab, V domains shown)
VH: B1 VH
VL: B8 VL with P91H, L92D, E93R, A94D
notes: Fab on phage pIX
B22: Fab clone 3G01 (IL-13-62 library) (Fab, V domains shown)
VH: B1 VH
VL: B8 VL with P91Q, L92D, E93L, A94G
notes: Fab on phage pIX
B23: Fab clone 1F11 (IL-13-62 library) (Fab, V domains shown)
VH: B1 VH
VL: B8 VL with P91H, L92S, E93V, A94G
notes: Fab on phage pIX
B24: Fab clone 2D09 (IL-13-62 library) (Fab, V domains shown)
VH: B1 VH
VL: B8 VL with P91H, L92N, E93V, A94G
notes: Fab on phage pIX
B25: Fab clone 1H06 (IL-13-62 library) (Fab, V domains shown)
VH: B1 VH
VL: B8 VL with P91H, L92D, E93W
notes: Fab on phage pIX
B26: Fab clone 3E03 (IL-13-62 library) (Fab, V domains shown)
VH: B1 VH
VL: B8 VL with P91H, L92S, E93I, A94G
notes: Fab on phage pIX
B27: Fab clone 1H02 (IL-13-62 library) (Fab, V domains shown)
VH: B1 VH
VL: B8 VL with P91H, E93L, A94G
notes: Fab on phage pIX
B28: Fab clone 2A11 (IL-13-62 library) (Fab, V domains shown)
VH: B1 VH
VL: B8 VL with P91H, L92S, E93H, A94G
notes: Fab on phage pIX
B29: Fab clone 3F08 (IL-13-62 library) (Fab, V domains shown)
VH: B1 VH
VL: B8 VL with P91H, E93M, A94G
notes: Fab on phage pIX
B30: Fab clone 1D02 (IL-13-62 library) (Fab, V domains shown)
VH: B1 VH
VL: B8 VL with S76G, P91H, L92D, E93W, A94S
notes: Fab on phage pIX
B31: Fab clone 1H12 (IL-13-62 library) (Fab, V domains shown)
VH: B1 VH
VL: B8 VL with P91H, L92D, E93L, A94G
notes: Fab on phage pIX
B32: Fab clone 3D11 (IL-13-62 library) (Fab, V domains shown)
VH: B1 VH
VL: B8 VL with P91H, E93N, A94G
notes: Fab on phage pIX
B33: Fab clone 3H12 (IL-13-62 library) (Fab, V domains shown)
VH: B1 VH
VL: B8 VL with P91H, L92D, E93S, A94G
notes: Fab on phage pIX
B34: Fab clone 1D08 (IL-13-62 library) (Fab, V domains shown)
VH: B1 VH
VL: B8 VL with P91H, L92D, E93W, A94E
notes: Fab on phage pIX
B35: Fab clone 1D01 (IL-13-62 library) (Fab, V domains shown)
VH: B1 VH
VL: B8 VL with P91H, L92S, E93Y, A94G
notes: Fab on phage pIX
B36: Fab clone 4F07 (IL-13-62 library) (Fab, V domains shown)
VH: B1 VH
VL: B8 VL with L92I, E93D
notes: Fab on phage pIX
B37: Fab clone 1F05 (IL-13-62 library) (Fab, V domains shown)
VH: B1 VH
VL: B8 VL with P91H, L92V, E93G, A94G
notes: Fab on phage pIX
B38: Fab clone 1F04 (IL-13-62 library) (Fab, V domains shown)
VH: B1 VH
VL: B8 VL with P91H, L92S, E93S, A94G
notes: Fab on phage pIX
B39: Fab clone 3A10 (IL-13-62 library) (Fab, V domains shown)
VH: B1 VH
VL: B8 VL with P91H, L92V, E93W, A94G
notes: Fab on phage pIX
B40: Fab clone 1H05 (IL-13-62 library) (Fab, V domains shown)
VH: B1 VH
VL: B8 VL with P91Q, L92D, E93Y, A94G
notes: Fab on phage pIX

Each binder was assayed against T1, human IL-13 R130Q variant (R110Q of the mature chain) (human, UniProt P35225 35-146, Biotinylated on amines (NHS-LC-biotin, 4:1) in ELISA, panning and competition assays. The letters are unchanged.) (assay: competition ELISA, biotinylated IL-13 R130Q binding to plate-bound IL-13Ra2, crude supernatant).
T1 construct: R130Q counts from Met 1 of the signal peptide, R110Q on the mature chain; Bought from Peprotech; also called IL-13 R110Q; b-R130Q
B1 was tested, and the “Percent Inhibition IL-13 R130Q (333 ng/ml) to Ra2” value (from here on “Percent Inhibition IL-13 R130Q”) was 55%.
In the case of B2, the “Percent Inhibition IL-13 R130Q” value is reported as 61%.
In the case of B3, the “Percent Inhibition IL-13 R130Q” value is reported as 44%.
With B4 the “Percent Inhibition IL-13 R130Q” value was 51%.
For B5, the “Percent Inhibition IL-13 R130Q” value was 26%.
For B6, the “Percent Inhibition IL-13 R130Q” value was 57%.
With B7 the “Percent Inhibition IL-13 R130Q” value was 57%.

These binders were tested against T1, human IL-13 R130Q variant (R110Q of the …) (assay: direct binding ELISA, mAb captured by anti-human Fc, biotinylated IL-13 R130Q, crude supernatant;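 further: 100% is the positive control mAb signal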).
In the case of B1, the “Percent IL-13 R130Q (30 ng/ml) Binding” value is reported as 84.7%.
In the case of B2, the “Percent IL-13 R130Q (30 ng/ml) Binding” value is reported as 94.8%.
For B3, the “Percent IL-13 R130Q (30 ng/ml) Binding” value was 76.2%.
With B4 the “Percent IL-13 R130Q (30 ng/ml) Binding” value was 92.2%.
B5 was tested, and the “Percent IL-13 R130Q (30 ng/ml) Binding” value was 36.4%.
With B6 the “Percent IL-13 R130Q (30 ng/ml) Binding” value was 85.9%.
With B7 the “Percent IL-13 R130Q (30 ng/ml) Binding” value was 78.9%.

Each binder was assayed against T1, human IL-13 R130Q variant (R110Q of the …) (assay: single-point (10 nM) phage Fab ELISA on biotinylated IL-13 R130Q).
With B8 the “Signal (% of Lc16Hc7)” value was 104%.
B9 was tested, and the “Signal (% of Lc16Hc7)” value was 108%.
With B10 the “Signal (% of Lc16Hc7)” value was 136%.
B11 was tested, and the “Signal (% of Lc16Hc7)” value was 172%.
In the case of B12, the “Signal (% of Lc16Hc7)” value is reported as 124%.
B13 was tested, and the “Signal (% of Lc16Hc7)” value was 152%.
B14 was tested, and the “Signal (% of Lc16Hc7)” value was 100%.
With B15 the “Signal (% of Lc16Hc7)” value was 120%.
With B16 the “Signal (% of Lc16Hc7)” value was 140%.
With B17 the “Signal (% of Lc16Hc7)” value was 117%.
B18 was tested, and the “Signal (% of Lc16Hc7)” value was 112%.
In the case of B19, the “Signal (% of Lc16Hc7)” value is reported as 136%.
B20 was tested, and the “Signal (% of Lc16Hc7)” value was 144%.
In the case of B21, the “Signal (% of Lc16Hc7)” value is reported as 108%.
B22 was tested, and the “Signal (% of Lc16Hc7)” value was 122%.
With B23 the “Signal (% of Lc16Hc7)” value was 108%.
With B24 the “Signal (% of Lc16Hc7)” value was 108%.
With B25 the “Signal (% of Lc16Hc7)” value was 139%.
With B26 the “Signal (% of Lc16Hc7)” value was 122%.
With B27 the “Signal (% of Lc16Hc7)” value was 148%.
With B28 the “Signal (% of Lc16Hc7)” value was 132%.
B29 was tested, and the “Signal (% of Lc16Hc7)” value was 111%.
For B30, the “Signal (% of Lc16Hc7)” value was 117%.
B31 was tested, and the “Signal (% of Lc16Hc7)” value was 111%.
B32 was tested, and the “Signal (% of Lc16Hc7)” value was 136%.
In the case of B33, the “Signal (% of Lc16Hc7)” value is reported as 120%.
B34 was tested, and the “Signal (% of Lc16Hc7)” value was 116%.
With B35 the “Signal (% of Lc16Hc7)” value was 144%.
With B36 the “Signal (% of Lc16Hc7)” value was 116%.
With B37 the “Signal (% of Lc16Hc7)” value was 144%.
With B38 the “Signal (% of Lc16Hc7)” value was 108%.
With B39 the “Signal (% of Lc16Hc7)” value was 160%.
For B40, the “Signal (% of Lc16Hc7)” value was 172%.
